Sequences and labels used below:
B1: TPR t1 (parent)
chain: GACCAAUCUGCCCUCAGAGCUCGAGAACAUCUUCGGAUGCAGAGGAGGCAGGCUUCGGUGGCGCGAUAGCGCCAACGUCCUCAACCUCCAAUGCAUCCCACCACAUGAUGAUGCCUGAAGAGCCUUGGUUUUUUG

This is an account of results in the RNAGym collection of RNA variant scans (doi:10.1073/pnas.2313332121).

Variants of B1 are the subject of the series. The series is described as follows: polymerase ribozyme fitness, log enrichment relative to wild type (log ratio); higher = more active; in vitro selection for triplet polymerase activity. In short, it runs like this:
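Genotype fitness is the logarithm of its enrichment divided by wild-type enrichment, using inverse-variance-weighted averages of replicates. That logarithm is base 2. Enrichment was measured by Illumina sequencing of input and output libraries from one triplicate in vitro selection round, with frozen incubation at −7 °C, on PCR-built, transcribed mutant libraries of each subunit of a heterodimeric triplet polymerase ribozyme, retaining genotypes with ≥10 input reads and ≥1 read per output.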
On to A6C C20A A26C G60A U116C U132C, for which the “polymerase ribozyme fitness (log ratio)” value is -7.63. To A6G G39A A68G C86U G117A belongs -5.73; to A6U C34G G45C C49A C123U, -5.99. Turning to A6G C8G G69U, the “polymerase ribozyme fitness (log ratio)” value is 0.471. The value for U7A C13A was -0.751; that for A6U G110A was -0.89; that for U7A C73G was -1.63. In the case of A6G A41G A50G C70U, the “polymerase ribozyme fitness (log ratio)” value is -0.773. The value for A6G C11U G48C C64U G113A G117A was -7.08; that for A5U G44U C72A A91C G113C U126G G128A was -5.74. To A6U C13U C62U U132A belongs -0.793. The value for A5U U7A C40G U55G C56U G60A was -3.04; that for A6U A41G was 0.32; that for A5U G39U G45U C82A C123A was -2.8.

Consider A6U U106G G113C, for which the “polymerase ribozyme fitness (log ratio)” value was -3.9. For the variant U7A A29U G60U C97U G113C G120U U133A, the “polymerase ribozyme fitness (log ratio)” value was -4.07. Turning to A6G C13G A111C U112A, the “polymerase ribozyme fitness (log ratio)” value is -1.87.

A6C U81C U87G: the “polymerase ribozyme fitness (log ratio)” value was -0.0503. Take A6G A24C C88G C102A A111U G122C U133G: the “polymerase ribozyme fitness (log ratio)” value is -6.51. With A5U G113C U125G U132A, the “polymerase ribozyme fitness (log ratio)” value is -1.99. The value for A6U G52A A74U was -0.0324; that for A6U U96C was -0.215. For the variant U7A G48U C94A C97U, the “polymerase ribozyme fitness (log ratio)” value was -2.33. For the variant A6U C56U C85A, the “polymerase ribozyme fitness (log ratio)” value was -2.08.

For A6C A83C C97U G110A, the “polymerase ribozyme fitness (log ratio)” value is -1.92. The value for A6U C22A A43C C79G C97U was -8.2; that for A6U U59C A119G was 0.571. Regarding U7A A103U, the “polymerase ribozyme fitness (log ratio)” value is -4.28. To A6U G45U G52C G69C C72U G122A belongs -3.45. A5U G71C U106G: the “polymerase ribozyme fitness (log ratio)” value is -3.95. The value for A6G A18C U54C was -2.19; that for A6U C72A C102A C123G was 0.361; that for U7A C13U G19C G113U was -1.96. Regarding A6U C115G, the “polymerase ribozyme fitness (log ratio)” value was -1.25. To A6C C72G A108G C115U belongs -4.82. To A6U U112G U130A belongs 0.321; to U7A A37G G52A C56G G120U, -0.68. On to A6G C13U G19U C56A, for which the “polymerase ribozyme fitness (log ratio)” value is -3.79. The value for A6U A50U G57C A75U was -0.743; that for A6C G44U C64U U96A C104A was -3.82.

On to A5U G39U G47C C72U, for which the “polymerase ribozyme fitness (log ratio)” value was -4.21. The value for A6U C70U A105U U125A was -3.91. The value for A6G C8U C98G was -4.61. Consider A6U C88U, for which the “polymerase ribozyme fitness (log ratio)” value is -1.02. A6U C88A: the “polymerase ribozyme fitness (log ratio)” value was -0.42. Consider A6U G42U C49U C101U G110U C123G, for which the “polymerase ribozyme fitness (log ratio)” value was -6.14.

A6U G60C G120U: the “polymerase ribozyme fitness (log ratio)” value came to 0.248. To A6G C97U belongs -0.751; to U7A A46U A50U G60A G69U U96C, -1.72; to A6G C11G C13G C99A C102U, -5.35. The value for U7A A27C C49U U55G was -4.4; that for A6U U106A was -0.188. Take U7A G39A G42C G45C A83U G110A: the “polymerase ribozyme fitness (log ratio)” value is -5.83.

Turning to A6U G19A G44A C53A G57A A100U C124U, the “polymerase ribozyme fitness (log ratio)” value is -4.72.

Regarding U7A C20U C73U G120A U129C U131G, the “polymerase ribozyme fitness (log ratio)” value was -0.869. To A6U A41U G61A C62G U112A belongs -6.58; to A5U G120U, 0.128; to A6U C124A, 1.49. To A6U G42U C89G C115A U125C belongs -3.18.

Turning to U7A G71C U81G, the “polymerase ribozyme fitness (log ratio)” value is -5.8. The value for A5U G63U C102A was -3.19; that for A5U U87A was -0.245. To A5U U87G belongs -0.121. To A6U C53G C124U U129A belongs -0.73. As to A6G C8G C12A C28A C56G U81C U112A, the “polymerase ribozyme fitness (log ratio)” value was -4.51. As for A6U C12U G48A C56A G65U A95U C97G C101A U112G C114U, the “polymerase ribozyme fitness (log ratio)” value is -7.26.

As to A5U G61U, the “polymerase ribozyme fitness (log ratio)” value is -0.313.

U7A G63U G77C U92G: the “polymerase ribozyme fitness (log ratio)” value is -5.12. Regarding A6G C12U G58A G113C, the “polymerase ribozyme fitness (log ratio)” value was -1.75. As to A6G C12U G69C U112C C123A U131A, the “polymerase ribozyme fitness (log ratio)” value was 0.491. To A6U G10A G71A belongs 0.159. With A6G G45C, the “polymerase ribozyme fitness (log ratio)” value is -1.17. The value for A6U G44U G52C G69A A121C was -4.22; that for U7A U14A A119G was 0.0679; that for A6G C98U U125G was -3.71. On to A6U G57A G58C A103C A105C, for which the “polymerase ribozyme fitness (log ratio)” value is -6.92. To A6G C11A U14A C28A G69U U78C belongs -3.37; to A6G G117A C124U, -0.162. As to A6C G63U, the “polymerase ribozyme fitness (log ratio)” value is -1.03. The value for A6U G60U C115A G117U was -4.41; that for A6U A16U A50C A83C U129G was -3.64. Consider U7A U9A C11A G42C G47U G61A A118U, for which the “polymerase ribozyme fitness (log ratio)” value is -4.21. To A6C C97A belongs -4.04; to U7A C12U A46U G58A C70A, -1.97.

As for A6C C73U C85A C114U, the “polymerase ribozyme fitness (log ratio)” value was -3.29. To A5U G63U G65C C80U C85U A95G C97U C115U belongs -6.48. To A6C A18C C49U C70U C82U belongs -5.19. For the variant U7A G44C C124G U129G G135U, the “polymerase ribozyme fitness (log ratio)” value is -0.681.

Consider A5U U129A, for which the “polymerase ribozyme fitness (log ratio)” value was -1.34.

As to A6G G69U G120U, the “polymerase ribozyme fitness (log ratio)” value turned out to be 0.637. The value for A6U G44C C72G G110A C115A was -4.85; that for A6U C49U C53U C62A G110A was -5.45.

Regarding A6U C13G G52A A111C U116G A121C, the “polymerase ribozyme fitness (log ratio)” value is -1.83. To A6G G39A C86U G117A belongs -0.696; to A6U G117A, -0.258. Turning to A6C C40U G107U C124U, the “polymerase ribozyme fitness (log ratio)” value is -4.44. On to A6U C80A U87A, for which the “polymerase ribozyme fitness (log ratio)” value is -2.6. To A6U C8A G44U G107A U112A belongs -6.05.

As for U7A C40G, the “polymerase ribozyme fitness (log ratio)” value was -0.25. To U7A C40U belongs 0.348; to A6C G61U U92C U129C, -2.43. To A5U U112G belongs -0.587; to U7A U9C C12U G57C G63U, -0.748. As for A6C G63A U87G C88A, the “polymerase ribozyme fitness (log ratio)” value was -1.25. To A6G G48U G52C belongs -2.21. To A6U C28U C123U belongs -0.417. To A6C C79A belongs -0.901; to A6C G42U C79U A90C, -0.731.

As to A6G U87A U92C A95C C114U, the “polymerase ribozyme fitness (log ratio)” value is -3.66. To A6G G69A C73A belongs -2.9. Take A5U U14C A50U C72A C124A U131G: the “polymerase ribozyme fitness (log ratio)” value is -1.27. Take A6C A18U G52C C79U C89U C101U: the “polymerase ribozyme fitness (log ratio)” value was -2.96. Take A5U G52U U112G: the “polymerase ribozyme fitness (log ratio)” value is -0.382. To A6U C11G G69U C76A U125G belongs -2.63.

As for U7A C13U A27G G36U A50C, the “polymerase ribozyme fitness (log ratio)” value was -2.73. The value for A6U C12A A16U G19U G42A G63U G93A U106A G120A U130A was -7.49. To A6U C22A belongs -4.95; to A6G C31A C64U C89G C123G, -6.4; to A6G G71A, -0.397. To A6U C11G G69U U125G belongs -1.05. In the case of A5U G19A G57U U78G G113U G135U, the “polymerase ribozyme fitness (log ratio)” value is -4.71. To A6U G69A belongs -2.02; to A6C G71C C79U, -0.784. To A5U G57A C70U belongs -1.67; to A6U C97G, -3.24; to A6G G48U G63A, -0.619. Take A6G G19U C70U: the “polymerase ribozyme fitness (log ratio)” value is -4.25. Regarding U7A C53G A83G A84C, the “polymerase ribozyme fitness (log ratio)” value is -0.766. To A6G U7A belongs 0.167. As to A6G G39A C123U U133A, the “polymerase ribozyme fitness (log ratio)” value was found to be 0.797. The value for A6G U9C C13G G61C C89U A90U C94U A105U A121G was -5.89. To A6C C101A belongs -1.63. To A6C A37U G47U G52U G63C C124U belongs -4.06; to U7A C12A C28G G58A U87G G120U, -1.72. As for A6U C15G A43U C115U U116G G120A G122A, the “polymerase ribozyme fitness (log ratio)” value was -3.93. Consider A6C G10A C13U G36U G51U G77C A90C G120U, for which the “polymerase ribozyme fitness (log ratio)” value was -4.97. The value for A6G C40U C56U G127C was -1.94.

On to U7A C12G G17U A105G G120C, for which the “polymerase ribozyme fitness (log ratio)” value was -4.05. In the case of U7A C40U C85G C104U, the “polymerase ribozyme fitness (log ratio)” value is -2.31. The value for A6U G71C G120C C123G was -0.502. To A6U A18U belongs -2.27.

With U7A C85U U125G, the “polymerase ribozyme fitness (log ratio)” value is -1.31. The value for A6C U7A C8A A29C U55A C88G C94U was -2.74. To A5U G71A C98U G127A G128U belongs -5.31.

Turning to A6C G48U C53U U59G C70U A90C, the “polymerase ribozyme fitness (log ratio)” value was -4.07.

With A6U C12G G45C A74U C94U, the “polymerase ribozyme fitness (log ratio)” value is -0.942. The value for A6G G39A was 0.16. Consider A6U G45U C101A, for which the “polymerase ribozyme fitness (log ratio)” value was -2.89.

For the variant A6U C101A, the “polymerase ribozyme fitness (log ratio)” value was -0.91. To U7A C72U U92C belongs -0.872; to U7A G60C C72U, 0.796; to A6U C53U U54G G93U U106A U129A, -2.14. Turning to A5U G42C U87A A91G, the “polymerase ribozyme fitness (log ratio)” value was -1.35. To A6G C64U belongs 0.116; to A6U G42U, -1.17; to U7A A41U C85U, -1.81.

For U7A C12A C20A G42U, the “polymerase ribozyme fitness (log ratio)” value was -3.2. On to U7A C11A G77A U81G, for which the “polymerase ribozyme fitness (log ratio)” value was -1.65. A6C G47U G69C C85A: the “polymerase ribozyme fitness (log ratio)” value was -4.06. The value for A6U C79G was -1.17; that for A6U C12U A27U was -1.6. Turning to A6U C12A A103U, the “polymerase ribozyme fitness (log ratio)” value is -4.89. The value for A6C G42C was -1.69.

For A6G C28G C115G U125G, the “polymerase ribozyme fitness (log ratio)” value is -3.74. Turning to U7A A41U G71A C85U U87A, the “polymerase ribozyme fitness (log ratio)” value is -4.06. The value for A6U G63U was -1.06.

Turning to U7A C70A G113C, the “polymerase ribozyme fitness (log ratio)” value was -4.53.
